Molecular target: serum IgE from grass pollen allergic patients (171 sera)
Test: ELISA competition; sera preabsorbed with rPhl p 6, IgE binding to rPhl p 5

B1: recombinant Phl p 6 (protein)
chain: GKATTEEQKLIEDINASFRAAMATTANVPPADKYKTFEAAFTVSSKRNLADAVSKAPQLVPKLDEVYNAAYNAADHAAPEDKYEAFVLHFSEALHIIAGTPEVHAVKPGA
percent of Phl p 5-specific IgE preabsorbed: < 20%

Source: US20030077290A1
